Laboratory results from the supplement of paper PMC10266784.

B1: library; numbered along this chain (parent)
chain: MAAAAAAAAEQQSSNGPVKKSMREKAVERRSVNKEHNSNFKAGYIPIDEDRLHKTGLRGRKGNLAICVIILLFILAVINLIITLVIWAVIRIGPNGCDSMEFHESGLLRFKQVSDMGVIHPLYKSTVGGRRNENLVITGNNQPIVFQQGTTKLSVENNKTSITSDIGMQFFDPRTQNILFSTDYETHEFHLPSGVKSLNVQKASTERITSNATSDLNIKVDGRAIVRGNEGVFIMGKTIEFHMGGNMELKAENSIILNGSVMVSTTRLPSSSSGDQLGSGDWVRYKLCMCADGTLFKVQVTSQNMGCQISDNPCGNTH

Variants of: B1
Assay: SGCB cell-surface expression functional score (HA stain, bin4 vs bin1, normalised to synonymous) (log10 ratio); higher = more cell-surface SGCB (functional)
Procedure: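 Deep mutational scan of full-length human SGCB (YFP-SGCB-HA, NNN codon sublibraries A-F) delivered by lentivirus at low MOI into ADG-HEK293 cells stably expressing SGCA, SGCD and SGCG. YFP-positive cells were stained for surface HA on unpermeabilized cells and FACS-sorted into bins. The functional score is log10(frequency in high bin 4 / frequency in low bin 1), normalised per chunk so that synonymous variants have mean 0 and SD 0.5. Scores are the median over codons and over duplicate biological replicates; scores below -0.5 are called non-functional. Scale: negative means deleterious.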

Variant | SGCB cell-surface expression functional score (log10)
MAAAAAAAAEQQSSNGPVKKSMREKAVERRSVNKEHNSNFKAGYIPIDEDRLHKTGLRGRKGNLAICVIILLFILAVINLIITLVIWAVIRYGPNGCDSMEFHESGLLRFKQVSDMGVIHPLYKSTVGGRRNENLVITGNNQPIVFQQGTTKLSVENNKTSITSDIGMQFFDPRTQNILFSTDYETHEFHLPSGVKSLNVQKASTERITSNATSDLNIKVDGRAIVRGNEGVFIMGKTIEFHMGGNMELKAENSIILNGSVMVSTTRLPSSSSGDQLGSGDWVRYKLCMCADGTLFKVQVTSQNMGCQISDNPCGNTH [I92Y] | -2.16
MAAAAAAAAEQQSSNGPVKKSMREKAVERRSVNKEHNSNFKAGYIPIDEDRLHKTGLRGRKGNLAICVIILLFILAVINLIITLVIWAVIRWGPNGCDSMEFHESGLLRFKQVSDMGVIHPLYKSTVGGRRNENLVITGNNQPIVFQQGTTKLSVENNKTSITSDIGMQFFDPRTQNILFSTDYETHEFHLPSGVKSLNVQKASTERITSNATSDLNIKVDGRAIVRGNEGVFIMGKTIEFHMGGNMELKAENSIILNGSVMVSTTRLPSSSSGDQLGSGDWVRYKLCMCADGTLFKVQVTSQNMGCQISDNPCGNTH [I92W] | -2.43
MAAAAAAAAEQQSSNGPVKKSMREKAVERRSVNKEHNSNFKAGYIPIDEDRLHKTGLRGRKGNLAICVIILLFILAVINLIITLVIWAVIRVGPNGCDSMEFHESGLLRFKQVSDMGVIHPLYKSTVGGRRNENLVITGNNQPIVFQQGTTKLSVENNKTSITSDIGMQFFDPRTQNILFSTDYETHEFHLPSGVKSLNVQKASTERITSNATSDLNIKVDGRAIVRGNEGVFIMGKTIEFHMGGNMELKAENSIILNGSVMVSTTRLPSSSSGDQLGSGDWVRYKLCMCADGTLFKVQVTSQNMGCQISDNPCGNTH [I92V] | -0.31
MAAAAAAAAEQQSSNGPVKKSMREKAVERRSVNKEHNSNFKAGYIPIDEDRLHKTGLRGRKGNLAICVIILLFILAVINLIITLVIWAVIRPGPNGCDSMEFHESGLLRFKQVSDMGVIHPLYKSTVGGRRNENLVITGNNQPIVFQQGTTKLSVENNKTSITSDIGMQFFDPRTQNILFSTDYETHEFHLPSGVKSLNVQKASTERITSNATSDLNIKVDGRAIVRGNEGVFIMGKTIEFHMGGNMELKAENSIILNGSVMVSTTRLPSSSSGDQLGSGDWVRYKLCMCADGTLFKVQVTSQNMGCQISDNPCGNTH [I92P] | -1.96
MAAAAAAAAEQQSSNGPVKKSMREKAVERRSVNKEHNSNFKAGYIPIDEDRLHKTGLRGRKGNLAICVIILLFILAVINLIITLVIWAVIRTGPNGCDSMEFHESGLLRFKQVSDMGVIHPLYKSTVGGRRNENLVITGNNQPIVFQQGTTKLSVENNKTSITSDIGMQFFDPRTQNILFSTDYETHEFHLPSGVKSLNVQKASTERITSNATSDLNIKVDGRAIVRGNEGVFIMGKTIEFHMGGNMELKAENSIILNGSVMVSTTRLPSSSSGDQLGSGDWVRYKLCMCADGTLFKVQVTSQNMGCQISDNPCGNTH [I92T] | -1.03
MAAAAAAAAEQQSSNGPVKKSMREKAVERRSVNKEHNSNFKAGYIPIDEDRLHKTGLRGRKGNLAICVIILLFILAVINLIITLVIWAVIRQGPNGCDSMEFHESGLLRFKQVSDMGVIHPLYKSTVGGRRNENLVITGNNQPIVFQQGTTKLSVENNKTSITSDIGMQFFDPRTQNILFSTDYETHEFHLPSGVKSLNVQKASTERITSNATSDLNIKVDGRAIVRGNEGVFIMGKTIEFHMGGNMELKAENSIILNGSVMVSTTRLPSSSSGDQLGSGDWVRYKLCMCADGTLFKVQVTSQNMGCQISDNPCGNTH [I92Q] | -1.97
MAAAAAAAAEQQSSNGPVKKSMREKAVERRSVNKEHNSNFKAGYIPIDEDRLHKTGLRGRKGNLAICVIILLFILAVINLIITLVIWAVIRSGPNGCDSMEFHESGLLRFKQVSDMGVIHPLYKSTVGGRRNENLVITGNNQPIVFQQGTTKLSVENNKTSITSDIGMQFFDPRTQNILFSTDYETHEFHLPSGVKSLNVQKASTERITSNATSDLNIKVDGRAIVRGNEGVFIMGKTIEFHMGGNMELKAENSIILNGSVMVSTTRLPSSSSGDQLGSGDWVRYKLCMCADGTLFKVQVTSQNMGCQISDNPCGNTH [I92S] | -2.23
MAAAAAAAAEQQSSNGPVKKSMREKAVERRSVNKEHNSNFKAGYIPIDEDRLHKTGLRGRKGNLAICVIILLFILAVINLIITLVIWAVIRRGPNGCDSMEFHESGLLRFKQVSDMGVIHPLYKSTVGGRRNENLVITGNNQPIVFQQGTTKLSVENNKTSITSDIGMQFFDPRTQNILFSTDYETHEFHLPSGVKSLNVQKASTERITSNATSDLNIKVDGRAIVRGNEGVFIMGKTIEFHMGGNMELKAENSIILNGSVMVSTTRLPSSSSGDQLGSGDWVRYKLCMCADGTLFKVQVTSQNMGCQISDNPCGNTH [I92R] | -1.46
MAAAAAAAAEQQSSNGPVKKSMREKAVERRSVNKEHNSNFKAGYIPIDEDRLHKTGLRGRKGNLAICVIILLFILAVINLIITLVIWAVIRIMPNGCDSMEFHESGLLRFKQVSDMGVIHPLYKSTVGGRRNENLVITGNNQPIVFQQGTTKLSVENNKTSITSDIGMQFFDPRTQNILFSTDYETHEFHLPSGVKSLNVQKASTERITSNATSDLNIKVDGRAIVRGNEGVFIMGKTIEFHMGGNMELKAENSIILNGSVMVSTTRLPSSSSGDQLGSGDWVRYKLCMCADGTLFKVQVTSQNMGCQISDNPCGNTH [G93M] | -1.49
MAAAAAAAAEQQSSNGPVKKSMREKAVERRSVNKEHNSNFKAGYIPIDEDRLHKTGLRGRKGNLAICVIILLFILAVINLIITLVIWAVIRIAPNGCDSMEFHESGLLRFKQVSDMGVIHPLYKSTVGGRRNENLVITGNNQPIVFQQGTTKLSVENNKTSITSDIGMQFFDPRTQNILFSTDYETHEFHLPSGVKSLNVQKASTERITSNATSDLNIKVDGRAIVRGNEGVFIMGKTIEFHMGGNMELKAENSIILNGSVMVSTTRLPSSSSGDQLGSGDWVRYKLCMCADGTLFKVQVTSQNMGCQISDNPCGNTH [G93A] | -0.97
MAAAAAAAAEQQSSNGPVKKSMREKAVERRSVNKEHNSNFKAGYIPIDEDRLHKTGLRGRKGNLAICVIILLFILAVINLIITLVIWAVIRICPNGCDSMEFHESGLLRFKQVSDMGVIHPLYKSTVGGRRNENLVITGNNQPIVFQQGTTKLSVENNKTSITSDIGMQFFDPRTQNILFSTDYETHEFHLPSGVKSLNVQKASTERITSNATSDLNIKVDGRAIVRGNEGVFIMGKTIEFHMGGNMELKAENSIILNGSVMVSTTRLPSSSSGDQLGSGDWVRYKLCMCADGTLFKVQVTSQNMGCQISDNPCGNTH [G93C] | -1.43
MAAAAAAAAEQQSSNGPVKKSMREKAVERRSVNKEHNSNFKAGYIPIDEDRLHKTGLRGRKGNLAICVIILLFILAVINLIITLVIWAVIRIEPNGCDSMEFHESGLLRFKQVSDMGVIHPLYKSTVGGRRNENLVITGNNQPIVFQQGTTKLSVENNKTSITSDIGMQFFDPRTQNILFSTDYETHEFHLPSGVKSLNVQKASTERITSNATSDLNIKVDGRAIVRGNEGVFIMGKTIEFHMGGNMELKAENSIILNGSVMVSTTRLPSSSSGDQLGSGDWVRYKLCMCADGTLFKVQVTSQNMGCQISDNPCGNTH [G93E] | -1.2
MAAAAAAAAEQQSSNGPVKKSMREKAVERRSVNKEHNSNFKAGYIPIDEDRLHKTGLRGRKGNLAICVIILLFILAVINLIITLVIWAVIRINPNGCDSMEFHESGLLRFKQVSDMGVIHPLYKSTVGGRRNENLVITGNNQPIVFQQGTTKLSVENNKTSITSDIGMQFFDPRTQNILFSTDYETHEFHLPSGVKSLNVQKASTERITSNATSDLNIKVDGRAIVRGNEGVFIMGKTIEFHMGGNMELKAENSIILNGSVMVSTTRLPSSSSGDQLGSGDWVRYKLCMCADGTLFKVQVTSQNMGCQISDNPCGNTH [G93N] | -0.14
MAAAAAAAAEQQSSNGPVKKSMREKAVERRSVNKEHNSNFKAGYIPIDEDRLHKTGLRGRKGNLAICVIILLFILAVINLIITLVIWAVIRILPNGCDSMEFHESGLLRFKQVSDMGVIHPLYKSTVGGRRNENLVITGNNQPIVFQQGTTKLSVENNKTSITSDIGMQFFDPRTQNILFSTDYETHEFHLPSGVKSLNVQKASTERITSNATSDLNIKVDGRAIVRGNEGVFIMGKTIEFHMGGNMELKAENSIILNGSVMVSTTRLPSSSSGDQLGSGDWVRYKLCMCADGTLFKVQVTSQNMGCQISDNPCGNTH [G93L] | -1.84
MAAAAAAAAEQQSSNGPVKKSMREKAVERRSVNKEHNSNFKAGYIPIDEDRLHKTGLRGRKGNLAICVIILLFILAVINLIITLVIWAVIRIDPNGCDSMEFHESGLLRFKQVSDMGVIHPLYKSTVGGRRNENLVITGNNQPIVFQQGTTKLSVENNKTSITSDIGMQFFDPRTQNILFSTDYETHEFHLPSGVKSLNVQKASTERITSNATSDLNIKVDGRAIVRGNEGVFIMGKTIEFHMGGNMELKAENSIILNGSVMVSTTRLPSSSSGDQLGSGDWVRYKLCMCADGTLFKVQVTSQNMGCQISDNPCGNTH [G93D] | -0.19
MAAAAAAAAEQQSSNGPVKKSMREKAVERRSVNKEHNSNFKAGYIPIDEDRLHKTGLRGRKGNLAICVIILLFILAVINLIITLVIWAVIRIFPNGCDSMEFHESGLLRFKQVSDMGVIHPLYKSTVGGRRNENLVITGNNQPIVFQQGTTKLSVENNKTSITSDIGMQFFDPRTQNILFSTDYETHEFHLPSGVKSLNVQKASTERITSNATSDLNIKVDGRAIVRGNEGVFIMGKTIEFHMGGNMELKAENSIILNGSVMVSTTRLPSSSSGDQLGSGDWVRYKLCMCADGTLFKVQVTSQNMGCQISDNPCGNTH [G93F] | -1.18
MAAAAAAAAEQQSSNGPVKKSMREKAVERRSVNKEHNSNFKAGYIPIDEDRLHKTGLRGRKGNLAICVIILLFILAVINLIITLVIWAVIRIIPNGCDSMEFHESGLLRFKQVSDMGVIHPLYKSTVGGRRNENLVITGNNQPIVFQQGTTKLSVENNKTSITSDIGMQFFDPRTQNILFSTDYETHEFHLPSGVKSLNVQKASTERITSNATSDLNIKVDGRAIVRGNEGVFIMGKTIEFHMGGNMELKAENSIILNGSVMVSTTRLPSSSSGDQLGSGDWVRYKLCMCADGTLFKVQVTSQNMGCQISDNPCGNTH [G93I] | -2.15
MAAAAAAAAEQQSSNGPVKKSMREKAVERRSVNKEHNSNFKAGYIPIDEDRLHKTGLRGRKGNLAICVIILLFILAVINLIITLVIWAVIRIKPNGCDSMEFHESGLLRFKQVSDMGVIHPLYKSTVGGRRNENLVITGNNQPIVFQQGTTKLSVENNKTSITSDIGMQFFDPRTQNILFSTDYETHEFHLPSGVKSLNVQKASTERITSNATSDLNIKVDGRAIVRGNEGVFIMGKTIEFHMGGNMELKAENSIILNGSVMVSTTRLPSSSSGDQLGSGDWVRYKLCMCADGTLFKVQVTSQNMGCQISDNPCGNTH [G93K] | -0.15
MAAAAAAAAEQQSSNGPVKKSMREKAVERRSVNKEHNSNFKAGYIPIDEDRLHKTGLRGRKGNLAICVIILLFILAVINLIITLVIWAVIRIHPNGCDSMEFHESGLLRFKQVSDMGVIHPLYKSTVGGRRNENLVITGNNQPIVFQQGTTKLSVENNKTSITSDIGMQFFDPRTQNILFSTDYETHEFHLPSGVKSLNVQKASTERITSNATSDLNIKVDGRAIVRGNEGVFIMGKTIEFHMGGNMELKAENSIILNGSVMVSTTRLPSSSSGDQLGSGDWVRYKLCMCADGTLFKVQVTSQNMGCQISDNPCGNTH [G93H] | 0.32
